From the nanobody polyreactivity screen of Harvey et al. (2022)

Test: yeast display, Sf9 membrane polyspecificity reagent, FACS + sequencing; frameworks hold sequencing errors
Summary of the method: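 A nanobody's polyreactivity label depends on the gate it was sorted from. Yeast display cells were stained with 10% biotinylated, detergent-solubilized Sf9 membrane reagent for 1 hour at 4 °C, enriched on streptavidin microbeads and sorted by FACS. The low and high (top ~1%) gates were set on anti-HA fluorescence for expression and streptavidin fluorescence for reagent binding.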

Sequence	polyreactivity (PSR sort gate)
QVQLVESGGGLVQAGGSLRLSCAASGRTFTVNAMGWSRQAPGKERELVAAISTSTGRTYYADSVKGRFTISRDNAKNTVYLQMNSLKPEDTAVYYCAAQSPYRGYYYTYYLYDYWGQGTQVTVSS	high polyreactivity
QVQLVESGGGLVQAGGSLRLSCAASGRTFTVNPMGWYRQAPGKERELVAAITSGGTTKYADSVKGRFTISRDNAKNTVYLQMNSLKPEDTAVYYCAARVYFPVQYPWFYFEYGYWGQGTQVTVSS	high polyreactivity
QVQLVESGGGLVQAGGSLRLSCAASGRTFTVYTMGWYRQAPGKERELVAVISTGGRTYYADSVKGRFTISRDNAKNTVYLQMNSLNPEDTAVYYCAAKFTREYYWGQGTQVTVSS	high polyreactivity
QVQLVESGGGLVQAGGSLRLSCAASGRTFTYNAMGWYRQAPGKERELDAAISWNGGRTYYADSVKGRFTISRDNAKNTVYLQMNSLKPEDTAVYYCAARSPKDSYSIQRYYWGQGTQVTVSS	high polyreactivity
QVQLVESGGGLVQAGGSLRLSCAASGRTFTYNTMGWYRQAPGKERELVAAISSSGGSTYYADSVKGRFTISRDNAKNTVYLKMNCLKPEDTAVYYCAKRYFSSSRYYYWGQGTKVTVSS	high polyreactivity
QVQLVESGGGLVQAGGSLRLSCAASGRTFTYYAMGWSRQAPGKERECVSAISSTGTSTYYADSVKGRFTISRDNAKNTVYLQMNSLKPEDTAVYYCNARVATYRLHSKFYYWGQGTQVTVSS	high polyreactivity
QVQLVESGGGLVQAGGSLRLSCAASGRTFTYYAMGWYRQAPGKERELVAAISSRGGSTYYADSVKGRFTISRDNAKNTVYLQMNSLNPEDTAVYYCAAVHRFTRASRWPDFDYWGQGTQVTVSS	high polyreactivity
QVQLVESGGGLVQAGGSLRLSCAASGRTFTYYAMGWYRQAPGKERELVAAISSTGGSTYYADSVKGRFTISRDNAKNTVTLQMNSLKPEDTAVYYCNVAFDDFDYWGQGTQVTVSS	low polyreactivity
QVQLVESGGGLVQAGGSLRLSCAASGRTFTYYAMGWYRQAPGKERELVAAITSGGRTYYADSVKGRFTISRDNAKNTVYLQMKSLKPEDTAVYYCAARRIRDYYRSYDYWGQGTQVTVSS	high polyreactivity
QVQLVESGGGLVQAGGSLRLSCAASGRTFTYYGMGWYRQAPGKERELVAAITERGDSTYYADSVKGRFTISRDNAKNTVYLQMNSLKPEDTAVYYCAAAEHLTRPSSPTQDGDHWGQGTQVTVSS	low polyreactivity
QVQLVESGGGLVQAGGSLRLSCAASGRTFTYYSMGWYRQAPGKERELVAAISSGGRTNYADSVKGRFTISRDNAKNTVYLQMNSLKPEDTAVYYCAADGTTFRNRYYFHRMDFWGQGTQVTVSS	high polyreactivity
QVQLVESGGGLVQAGGSLRLSCAASGRTFVANAMGWYRQAPGKEREFVAAITGGDSTYYADSVKGRFTISRDNAKNTVYLQMNSLKPEDTAVYYCAAPYNFWNFFDLIYVWDGYDYWGQGTQVTVSS	low polyreactivity
QVQLVESGGGLVQAGGSLRLSCAASGRTFVDNGMGWYRQAPGKERELVAAITYSGGGTYYADSVKGRFTISRDNAKNTVYLQMNSLKPEDTAVYYCNAELGPVDYYGGVTPEYDYWGQGTQVTVSS	low polyreactivity
QVQLVESGGGLVQAGGSLRLSCAASGRTFVFNAMGWYRQAPGKERELVAAISRSGGSTYYADSVKGRFTISRDNAKNTVYLQMNSLKTEDTAVYYCAADTPYLRRRLGMDYWGQGTQVTVSS	high polyreactivity
QVQLVESGGGLVQAGGSLRLSCAASGRTFVFNDMGWYRQAPGKERELVAAITKNGGSTYYADSVKGRFTISRDTAKNTVYLHMNSLKPEDTAVYYSNASFQYYDYWGQGTQVTVSS	low polyreactivity
QVQLVESGGGLVQAGGSLRLSCAASGRTFVFYAMGWYRPAPGKERQLVAAITSGTSTNYADSVKGRFTISRDNAKNTGYLQMNSLNPEDTAVYYCAAYWTDLTYSIGFGYWGQGTQVTVSS	low polyreactivity
QVQLVESGGGLVQAGGSLRLSCAASGRTFVHNDMGWYRQAPGKERQLVAAINVSDGSTYYADSVKGRFTISRDNAKNTVYFQMNSLKPEDTAVYYCAKASYIIFRFEYRSGYDYWGQGTQVTVSS	low polyreactivity
QVQLVESGGGLVQAGGSLRLSCAASGRTFVHYAMGWYRPAPGKERELVAAITWNGGRTYYADSVKGRFTISRDNAKNTVYLQMNSLKPEDTAVYYCAADGKYYHRRPGWPIYDYWGQGTQVTVSS	high polyreactivity
QVQLVESGGGLVQAGGSLRLSCAASGRTFVIYDMGWYRQAPGKERELVAGITRSGGSTYADSVKGRFTISRDNAKNTVYLQMNSLKPEDTAVYYCARRKLYHKSPYDYWGQGTQVTVSS	low polyreactivity
QVQLVESGGGLVQAGGSLRLSCAASGRTFVKNAMGWYRLAPGKERELVAAISRRGGSTYYADSVKGRFTISRDNAKNTVYLQMNSRKPEDTAVYYCAAPYTRPTTGYDYWGQGTQVTVSS	high polyreactivity
QVQLVESGGGLVQAGGSLRLSCAASGRTFVKNAMGWYRQAPGKERELVATISSSGASTRYADSVKGRFTISRDNAKNTVYLQMNSLKPDDSAVYYCAAGYGFPRDYWGQGTQVTVSS	high polyreactivity
QVQLVESGGGLVQAGGSLRLSCAASGRTFVKNAMGWYRQAPGKERELVAVISQSGGSTYYADSVKGRFTISRDNAKNTVYLQMNCLKPEDTAVYYCAARYSYYRQGDSWYNYNYWGQGTQVTVSS	high polyreactivity

Sequence	polyreactivity (PSR sort gate)
QVQLVESGGGLVQAGGSLRLSCAASGRTFVKYAMGWYRQAPGKERELVAAISWSGGSTYYADSVKGRFTISRDKAKNTVYLQMNSLKPEDTAVYYCAAPSSRGQGRNFDYWGQGTQVTVSS	high polyreactivity
QVQLVESGGGLVQAGGSLRLSCAASGRTFVLNAMGWYRPAPGKERELVAAITLGGGSTYADSVKGRFTISRDNAKNTVYLQMNSLKPEDTAVYYCAADFHYPAFEYWGQGTQVTVSS	low polyreactivity
QVQLVESGGGLVQAGGSLRLSCAASGRTFVPYAMGRYRQAPGKERELVAAISSSGGSTYYADSVKGRFTISRDNAKNTVYLQMNSLKPEDTAVYFCAAKSRKGGDYWGQGTQVTVSS	high polyreactivity
QVQLVESGGGLVQAGGSLRLSCAASGRTFVPYAMGWYRQAPGKERELVAAITWSGGRTRYADSVKGRFTISRDNAKNTVYLQMNSLKPEDTAVYYCARYYWLYSSSYDYWGQGTQVTVSS	high polyreactivity
QVQLVESGGGLVQAGGSLRLSCAASGRTFVPYDMGWYRQAPGKERELVAAISSGDSTNYTDSVKGRFTISRDNAKNTVYLQMNSLKPEDTAVYYCAADLTYTMDHWGQGTQVTVSS	low polyreactivity
QVQLVESGGGLVQAGGSLRLSCAASGRTFVQNAMGWYRQAPGKERELVAAITWSTSGTYYADSVKGRFTISRDNAKNTVYLQMNSLKPEDTAVYYCAKYLAAYTGGGGYWGQGTQVTVSS	low polyreactivity
QVQLVESGGGLVQAGGSLRLSCAASGRTFVQNAMGWYRQAPGKERELVASIRYRDGSTYYADSVKGRFTISRDNAKNTVYLQMNSLKREDTAVYYCAVRIGARGRGGKDRVYYWGQGTQVTVSS	high polyreactivity
QVQLVESGGGLVQAGGSLRLSCAASGRTFVRYAMGWYRQAPGKEREFVAAITGSGGITYYADSVKGRFTISRDNAKNTVYLQMNSLKPEDTAVYYCAARGGFGRYWYDYWGQGTQVTVSS	high polyreactivity
QVQLVESGGGLVQAGGSLRLSCAASGRTFVRYAMGWYRQAPGKERELVAAISWSGATTYYADSVKGRFTISRDNAKNTVYLQMNSLKPEDTAVYYCAARFRRGITYEYWGQGTQVTVSS	high polyreactivity
QVQLVESGGGLVQAGGSLRLSCAASGRTFVRYTMGWYRQAPVKERELVATISYNGGRTYYADSVKGRFTISRDNAKNTVYLQMNSLKPEDTAVYYCATRLPKSSLHDYWGQGTQVTVSS	high polyreactivity
QVQLVESGGGLVQAGGSLRLSCAASGRTFVSNAMGWYRQAPGKERELVARITGSGGTTYYADSVKGRFTISRDNAKNTVYLQMNSLKPEDTAVYYCNADVFRKFGSPSAYKSHRYDYWGQGTQVTVSS	low polyreactivity
QVQLVESGGGLVQAGGSLRLSCAASGRTFVSYAMGWYRQAPGKERELVATITGSTGGTYYADSVKGRFTISRDNAKNTVYLQMNSLKPEDTAVYYCNKDYYYNPGNVASGYDYWGQGTQVTVSS	low polyreactivity
QVQLVESGGGLVQAGGSLRLSCAASGRTFVSYVMGWYRQAPGKERELVAAIDQSGDRTYYPDSVKGRFTISRDNAKNTVYLQMNSLKPEDTAVYYCASRWGYSSRPYYYWGQGTQVTVSS	high polyreactivity
QVQLVESGGGLVQAGGSLRLSCAASGRTFVTNAMGWSRQAPGKERELVAAISSGDRTYYADSVKGRFTISRDNAKNTVYLQMNSLKPEDTAVYYCAKVSRRGIVGYWGQGTQVTVSS	high polyreactivity
QVQLVESGGGLVQAGGSLRLSCAASGRTFVTNAMGWYRQAPGKETELVAAISGTGGSTYYADSVKGRFTISRDNAKNTVYLQMNSLKPEDTAVYYCAAQKWRRGRYRDTAGPLFAYDYWGQGTQVTVSS	low polyreactivity
QVQLVESGGGLVQAGGSLRLSCAASGRTFVTYTMGWYRPAPGKERELVAAISRDGRTYYADSVKGRFTISRDNAKNTVYLQMNSLKPEDTAVYYCATRYKSPSFDYWGQGTQVTVSS	high polyreactivity
QVQLVESGGGLVQAGGSLRLSCAASGRTFVVYAMGWYRQAPGKERELVAAITSSGNTYYADSVKGRFTISRDNAKNTVYLQMNSLKPEDTAVYYCAAYSLYGYDYWGQGTQVTVSS	low polyreactivity
QVQLVESGGGLVQAGGSLRLSCAASGRTFVWNAMGWYRQAPGKERELVAAISSSGGSTYYADSVKGRFTISRDNAKNTVYLQMNSLKPEDTAVYYCAARRASGFDWGQGTQVTVSS	high polyreactivity
QVQLVESGGGLVQAGGSLRLSCAASGRTFVWNAMGWYRQAPGTERELVAAITSGGSTNYADSVKGRFTISRDNAKNTVYLQMNSLIPEDTAVYYCGAVWQYSPRMDYWGQGTQVTVSS	low polyreactivity
QVQLVESGGGLVQAGGSLRLSCAASGRTFVWYVMGWYRQAPGKERELVAAISLRGGTTYYADSVKGRFTISRDNAKNTVYLQMNSLKPEDTAVYYCAIAGIRHVTSKFKGYHFGYWGQGTQVTVSS	low polyreactivity
QVQLVESGGGLVQAGGSLRLSCAASGRTFVYKAMGWYRQSPGKERELVAALDGGGDRTYYADSVKGRFTISRDNAKNTVYLQMNSLKPEDTAVYYCARDPGDTYYYSYPEGDYWGEGTQVTVSS	low polyreactivity
